Literature values in article PMC8808565 (iScience, 2022).

Tested on: ACE2

B1: human defensin 5 (protein, UniProt Q01523 20-94, looked up)
Defensin alpha 5: ESLQERADEATTQKQSGEDNQDLAISFAGNGLSALRTSGSQARATCYCRTGRCATRESLSGVCEISGRLYRLCCR
modifications: Defensin-5
- target (in words): target ACE2
